Experimental data as given in patent EP4467563A1 (priority 2023, dated 2024).

Molecular target: T1, LDLR (Homo sapiens, UniProt P01130)
T1 construct: expressed in transfected cells; host or cells: HEK293 (ATCC CRL-1573)
Assay type: binding

T1 sequence (P01130 22-860): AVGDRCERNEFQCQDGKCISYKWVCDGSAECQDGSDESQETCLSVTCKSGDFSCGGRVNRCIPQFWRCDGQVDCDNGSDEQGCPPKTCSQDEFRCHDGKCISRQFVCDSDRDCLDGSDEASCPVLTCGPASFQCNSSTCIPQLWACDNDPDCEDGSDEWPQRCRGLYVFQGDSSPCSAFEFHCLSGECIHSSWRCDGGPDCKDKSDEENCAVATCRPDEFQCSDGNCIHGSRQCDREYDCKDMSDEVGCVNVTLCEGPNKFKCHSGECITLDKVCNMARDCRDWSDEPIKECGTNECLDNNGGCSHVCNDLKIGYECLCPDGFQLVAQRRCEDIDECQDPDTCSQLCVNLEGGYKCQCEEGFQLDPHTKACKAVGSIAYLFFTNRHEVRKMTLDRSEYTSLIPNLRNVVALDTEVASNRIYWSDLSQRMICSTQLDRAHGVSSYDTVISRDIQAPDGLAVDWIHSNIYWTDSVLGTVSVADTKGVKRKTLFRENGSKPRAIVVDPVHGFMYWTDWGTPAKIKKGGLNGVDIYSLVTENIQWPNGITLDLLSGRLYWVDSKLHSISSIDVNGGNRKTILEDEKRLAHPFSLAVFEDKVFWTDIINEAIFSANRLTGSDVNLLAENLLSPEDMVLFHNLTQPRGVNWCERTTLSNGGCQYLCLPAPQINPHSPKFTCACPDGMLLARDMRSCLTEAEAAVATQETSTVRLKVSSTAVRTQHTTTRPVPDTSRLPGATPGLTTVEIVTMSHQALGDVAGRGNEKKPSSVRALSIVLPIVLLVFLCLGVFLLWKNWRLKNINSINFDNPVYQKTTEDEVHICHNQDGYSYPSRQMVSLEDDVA

BODIPY-FL-labelled LDL: BOPIDY FL complexed LDL purchased from ThermoFisher Scientific; fluorescent ligand for the BRET binding assay
ligand-binding BRET signal (binding to LDLR): concentration-dependent ligand-binding BRET signal
